Measurements from US20090240036A1 (Eli Lilly, published 2009).

What was measured:
[1] = molecular target: Human IL-23 (heterodimer of p19 and p40 subunits) (human) (UniProt P29460); assay: cell-based or functional assay
[2] = molecular target: Human IL-23 (heterodimer of p19 and p40 subunits) (human) (UniProt P29460); assay: BIAcore SPR, antibody captured on protein A, human IL-23 flowed, HBS-EP pH 7.4, 25 C
[3] = molecular target: T1, Human IL-23 (heterodimer of p19 and p40 subunits) (human, UniProt P29460 23-328); assay: as above
T1 construct: also called hIL-23; human IL-23 (R and D Systems)
T1 sequence 1: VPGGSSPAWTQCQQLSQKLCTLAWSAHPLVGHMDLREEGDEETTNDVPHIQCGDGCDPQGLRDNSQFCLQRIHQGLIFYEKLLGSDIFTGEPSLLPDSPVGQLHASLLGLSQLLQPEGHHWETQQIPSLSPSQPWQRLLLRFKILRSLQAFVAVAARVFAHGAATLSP
T1 sequence 2: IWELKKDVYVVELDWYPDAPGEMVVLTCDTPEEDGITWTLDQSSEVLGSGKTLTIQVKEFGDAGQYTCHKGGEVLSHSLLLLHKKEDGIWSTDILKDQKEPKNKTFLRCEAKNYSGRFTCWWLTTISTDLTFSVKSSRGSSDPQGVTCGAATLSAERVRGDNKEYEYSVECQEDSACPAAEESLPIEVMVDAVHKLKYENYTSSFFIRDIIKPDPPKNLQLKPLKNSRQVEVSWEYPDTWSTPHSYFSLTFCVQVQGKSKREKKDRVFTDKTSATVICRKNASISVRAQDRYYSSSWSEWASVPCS
Protocol: Affinities of MAb3A8 and antibodies of the present invention are determined using BIAcore measurements (Table 3). BIAcore™ is an automated biosensor system that measures molecular interactions. (Karlsson, et al. (1991) J. Immunol. Methods 145: 229-240). In these experiments antibody is captured to a surface at low density on a BIAcore™ chip. Ethyl-dimethylaminopropyl-carbodiimide (EDC) is used to couple reactive amino groups to protein A to a flow cell of a carboxy-methyl (CM5) BIAcore™ sensor chip. Protein A is diluted in sodium acetate buffer, pH 4.5, and immobilized on a flow cell of a CM5 chip using EDC to yield 1000 response units. Unreacted sites are blocked with ethanolamine. A flow rate of 60 μl/min is used. Multiple binding/elution cycles are performed by injection a 10 μl solution of 2 μg/mL of the antibodies of the present invention. followed by human IL-23 at decreasing concentrations for each cycle (e.g. 1500, 750, 375, 188, 94, 47, 23.5, 12, and 0 picomolar). Elution is performed with glycine-HCl, pH 1.5. BIAevaluation™ is used to analyze the kinetic data.

[4] = molecular target: T1, Human IL-23 (heterodimer of p19 and p40 …); assay: cell-based or functional assay

Molecule | IC50 Measured in the Murine Splenocyte Assay [1] | Kd [2] | koff [2] | kon [2] | Kd [3] | koff [3] | kon [3] | IC50 Measured in the Murine Splenocyte Assay [4]
MAB1290, anti-human IL-23 monoclonal antibody, murine (R&D Systems) | 2800 pM | 21400 pM | 0.000768 s⁻¹ | 36800 M⁻¹ s⁻¹ | – | – | – | –
MAbQF20 (antibody, human IgG1, kappa, V domains shown, Humanized antibody derived from MAb3A8) VH: QVQLVQSGAEVKKPGASVKVSCKVSGKTFWSYGINWVRQAPGKGLEWMGYIYIGTGYTEPNPKYKGRVTMTEDTSTDTAYMELSSLRSEDTAVYYCATIGGYYGNFADWGQGTTVTVSS VL: DVVMTQSPLSLPVTLGQPASISCRSSQSLLISGGKTYLNWFQQRPGQSPRRLIYLVSKLDQGVPDRFSGSGSGTDFTLKISRVEAEDVGVYYCWQGTYFPLTFGQGTKLEIKR | – | – | – | – | 74 pM | 0.000115 s⁻¹ | 1.55e+06 M⁻¹ s⁻¹ | 2 pM
MAbQF37 (antibody, human IgG1, kappa, V domains shown, Humanized antibody derived from MAb3A8) VH: QVQLVQSGAEVKKPGASVKVSCKVSGKTFWSYGINWVRQAPGKGLEWMGYIYIGTGYTEPNPKYKGRVTMTEDTSTDTAYMELSSLRSEDTAVYYCATIGGYYGNFDQWGQGTTVTVSS VL: DVVMTQSPLSLPVTLGQPASISCRSSQSLLISGGKTYLNWFQQRPGQSPRRLIYLVSKLDQGVPDRFSGSGSGTDFTLKISRVEAEDVGVYYCWQGTYFPLTFGQGTKLEIKR | – | – | – | – | 98 pM | 0.000153 s⁻¹ | 1.55e+06 M⁻¹ s⁻¹ | 2 pM
